# Data taken from paper PMC11734722.
# pKd: −log10 of the molar value.
# Experiments:
# [1] = biological target: α-synuclein monomer (not stated (mouse or human recombinant monomer bought)) (UniProt O55042); test: MST
# [2] = biological target: β-synuclein (β-syn) peptide, 36 to 45 amino acids, all D type; test: ITC
pKd [1],pKd [2],Substance
4.36,,α-synuclein monomer (from UniProt O55042 1-140) (natural protein)
,6.41,α-synuclein preformed fibrils (α-syn PFF) (from UniProt O55042 1-140) (natural protein)
